Earlier results as cited in PMC3924328, “Structure of the S100A4/myosin-IIA complex” (BMC Structural Biology, 2013).

Molecular target: myosin-IIA 1904-1927 (Homo sapiens) (UniProt P35579)
Experiment: fluorescence anisotropy

Chain of S100A4 (P26447 2-101): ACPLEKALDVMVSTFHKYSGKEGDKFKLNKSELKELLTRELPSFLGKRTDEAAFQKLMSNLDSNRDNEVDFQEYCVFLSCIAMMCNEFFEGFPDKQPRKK
Chain of myosin-IIA 1904-1927 (Homo sapiens) (P35579 1904-1927): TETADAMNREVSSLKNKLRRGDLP

Kd: 260 nM
Substance: S100A4 (from UniProt P26447)
